Assay results as given in patent US20230293638A1 (Eli Lilly, published 2023).
Positions count from the first letter of the chain named. Numbered stars: 1 amine (or outer) side, 2 acyl side, 3 side chain; on linkers, the order of the positions; unused ones are H or OH. Square brackets hold non-standard residues; d marks the D form. Side chains are listed from the residue outwards. Ends that are not written are not given here. * marks the point of attachment. C20 diacid = O=C(O)CCCCCCCCCCCCCCCCCCC(=O)*; γGlu = O=C(O)[C@H](CCC(=O)[*:2])N[*:1]; AEEA = NCCOCCOCC(=O)O; Aib = CC(C)(N)C(=O)O

B1: Peptide 230 (peptide)
peptide: YXEGTXTSDYSIXLDHKAQXEFIXYLIEGGPSSGAPPPS
modifications: Aib2; αMeF(2F)6; αMeL13; K17((2-[2-(2-Amino-ethoxy)-ethoxy]-acetyl)2-(γGlu)-CO-(CH2)18-CO2H); Aib20; D-Glu24; C-terminal NH2
B2: Peptide 221 (peptide)
peptide: B1 peptide with H16E
modifications: Aib2; αMeF(2F)6; αMeL13; K17((2-[2-(2-Amino-ethoxy)-ethoxy]-acetyl)2-(γGlu)-CO-(CH2)16-CO2H); Aib20; D-Glu24; C-terminal NH2
B3: Peptide 241 (peptide)
peptide: B1 peptide with Y10V, H16X, E21T, Y25X
modifications: not fully specified; Aib2; αMeF(2F)6; αMeL13; Orn16; K17((2-[2-(2-Amino-ethoxy)-ethoxy]-acetyl)2-(γGlu)-CO-(CH2)16-CO2H); Aib20; D-Glu24; αMeY25; C-terminal NH2
B4: Peptide 233 (peptide)
peptide: B1 peptide with Y10X, H16X
modifications: not fully specified; Aib2; αMeF(2F)6; 4Pal10; αMeL13; Dab16; K17((2-[2-(2-Amino-ethoxy)-ethoxy]-acetyl)2-(γGlu)-CO-(CH2)16-CO2H); Aib20; D-Glu24; C-terminal NH2
B5: Peptide 214 (peptide)
peptide: B1 peptide with H16E
modifications: Aib2; αMeF(2F)6; αMeL13; K17((2-[2-(2-Amino-ethoxy)-ethoxy]-acetyl)2-CO-(CH2)16-CO2H); Aib20; D-Glu24; C-terminal NH2
B6: Peptide 222 (peptide)
peptide: B1 peptide with H16E, Y25X
modifications: Aib2; αMeF(2F)6; αMeL13; K17((2-[2-(2-Amino-ethoxy)-ethoxy]-acetyl)2-(γGlu)-CO-(CH2)18-CO2H); Aib20; D-Glu24; αMeY25; C-terminal NH2
B7: Peptide 223 (peptide)
peptide: B1 peptide with H16E, X24E, Y25X
modifications: Aib2; αMeF(2F)6; αMeL13; K17((2-[2-(2-Amino-ethoxy)-ethoxy]-acetyl)2-(γGlu)-CO-(CH2)18-CO2H); Aib20; αMeY25; C-terminal NH2
B8: Peptide 243 (peptide)
peptide: B1 peptide with Y10L, H16X, E21T, Y25X
modifications: not fully specified; Aib2; αMeF(2F)6; αMeL13; Orn16; K17((2-[2-(2-Amino-ethoxy)-ethoxy]-acetyl)2-(γGlu)-CO-(CH2)16-CO2H); Aib20; D-Glu24; αMeY25; C-terminal NH2
B9: Peptide 244 (peptide)
peptide: B1 peptide with Y10L, H16X, E21A, Y25X
modifications: not fully specified; Aib2; αMeF(2F)6; αMeL13; Orn16; K17((2-[2-(2-Amino-ethoxy)-ethoxy]-acetyl)2-(γGlu)-CO-(CH2)16-CO2H); Aib20; D-Glu24; αMeY25; C-terminal NH2
B10: Peptide 236 (peptide)
peptide: B1 peptide with H16X, Y25X
modifications: not fully specified; Aib2; αMeF(2F)6; αMeL13; Orn16; K17((2-[2-(2-Amino-ethoxy)-ethoxy]-acetyl)2-(γGlu)-CO-(CH2)16-CO2H); Aib20; D-Glu24; αMeY25; C-terminal NH2
B11: Peptide 218 (peptide)
peptide: B1 peptide with H16X
modifications: Aib2; αMeF(2F)6; αMeL13; Dap16; K17((2-[2-(2-Amino-ethoxy)-ethoxy]-acetyl)2-(γGlu)-CO-(CH2)18-CO2H); Aib20; D-Glu24; C-terminal NH2
B12: Peptide 238 (peptide)
peptide: B1 peptide with Y10L, H16X, Y25X
modifications: not fully specified; Aib2; αMeF(2F)6; αMeL13; Orn16; K17((2-[2-(2-Amino-ethoxy)-ethoxy]-acetyl)2-(γGlu)-CO-(CH2)16-CO2H); Aib20; D-Glu24; αMeY25; C-terminal NH2
B13: Peptide 219 (peptide)
peptide: YXEGTXTSDYSIXLDEKAQXEFIXYLIEGGPSSG
modifications: Aib2; αMeF(2F)6; αMeL13; K17((2-[2-(2-Amino-ethoxy)-ethoxy]-acetyl)2-(γGlu)-CO-(CH2)16-CO2H); Aib20; D-Glu24; C-terminal NH2
B14: Peptide 228 (peptide)
peptide: B13 peptide with E16K
modifications: Aib2; αMeF6; αMeL13; K17((2-[2-(2-Amino-ethoxy)-ethoxy]-acetyl)2-(γGlu)-CO-(CH2)18-CO2H); Aib20; D-Glu24; C-terminal NH2
B15: Peptide 25 (peptide)
peptide: Y[Aib]EGTFTSDYSK([AEEA-AEEA-γGlu-C20 diacid])LLDKIAQ[Aib]AFIEYLIEGGPSSGAPPPS-NH2
modifications: N-terminus assumed
SMILES: CC[C@H](C)[C@H](NC(=O)[C@H](CCCCN)NC(=O)[C@H](CC(=O)O)NC(=O)[C@H](CC(C)C)NC(=O)[C@H](CC(C)C)NC(=O)[C@H](CCCCNC(=O)COCCOCCNC(=O)COCCOCCNC(=O)CC[C@H](NC(=O)CCCCCCCCCCCCCCCCCCC(=O)O)C(=O)O)NC(=O)[C@H](CO)NC(=O)[C@H](Cc1ccc(O)cc1)NC(=O)[C@H](CC(=O)O)NC(=O)[C@H](CO)NC(=O)[C@@H](NC(=O)[C@H](Cc1ccccc1)NC(=O)[C@@H](NC(=O)CNC(=O)[C@H](CCC(=O)O)NC(=O)C(C)(C)NC(=O)[C@@H](N)Cc1ccc(O)cc1)[C@@H](C)O)[C@@H](C)O)C(=O)N[C@@H](C)C(=O)N[C@@H](CCC(N)=O)C(=O)NC(C)(C)C(=O)N[C@@H](C)C(=O)N[C@@H](Cc1ccccc1)C(=O)N[C@H](C(=O)N[C@@H](CCC(=O)O)C(=O)N[C@@H](Cc1ccc(O)cc1)C(=O)N[C@@H](CC(C)C)C(=O)N[C@H](C(=O)N[C@@H](CCC(=O)O)C(=O)NCC(=O)NCC(=O)N1CCC[C@H]1C(=O)N[C@@H](CO)C(=O)N[C@@H](CO)C(=O)NCC(=O)N[C@@H](C)C(=O)N1CCC[C@H]1C(=O)N1CCC[C@H]1C(=O)N1CCC[C@H]1C(=O)N[C@@H](CO)C(N)=O)[C@@H](C)CC)[C@@H](C)CC

Molecular target: human GLP-1 receptor (human, UniProt P43220 24-463)
Experiment: cell-based or functional assay

Row | Binder | hGLPIR cAMP EC50 ratio
1 | B1 | 0.599
2 | B2 | 0.795
3 | B3 | 1.89
4 | B4 | 0.535
5 | B5 | 1.74
6 | B6 | 1.55
7 | B7 | 0.962
8 | B8 | 1.22
9 | B9 | 1.29
10 | B10 | 1.65
11 | B11 | 1.02
12 | B12 | 1.15
13 | B13 | 1.03
14 | B14 | 1.1
15 | B15 | 0.197
